Patent publication US20240301041A1

How the values were obtained:
[1] = biological target: IgG binding protein (Protein A homolog SpsQ/SpsP) on S. intermedius 27369 (Staphylococcus intermedius); assay: ELISA, coated S. intermedius 27369, antibody 3.86E-08 M
[2] = biological target: IgG binding protein (Protein A homolog SpsQ/SpsP) on S. pseudintermedius AHDRCC 98200 (Staphylococcus pseudintermedius); assay: ELISA, coated S. pseudintermedius 98200, antibody 3.86E-08 M
[3] = biological target: IgG binding protein (Protein A homolog SpsQ/SpsP) on S. pseudintermedius AHDRCC 98200 (Staphylococcus pseudintermedius); assay: ELISA, coated S. pseudintermedius 98200, antibody 3.09E-07 M
[4] = biological target: Protein A on the surface of S. aureus Newman wild-type (Staphylococcus aureus (strain Newman)) (UniProt P38507); assay: cell-based or functional assay
[5] = biological target: IgG binding protein (Protein A homolog SpsQ/SpsP) on S. intermedius 27369 (Staphylococcus intermedius); assay: cell-based or functional assay
[6] = biological target: IgG binding protein (Protein A homolog SpsQ/SpsP) on S. pseudintermedius AHDRCC 98200 (Staphylococcus pseudintermedius); assay: cell-based or functional assay
[7] = biological target: IgG binding protein (Protein A homolog SpsQ/SpsP) on S. intermedius 27369 (Staphylococcus intermedius); assay: ELISA, coated S. intermedius 27369, antibody 1.47E-13 M
[8] = biological target: IgG binding protein (Protein A homolog SpsQ/SpsP) on S. pseudintermedius AHDRCC 98200 (Staphylococcus pseudintermedius); assay: ELISA, coated S. pseudintermedius 98200, antibody 1.18E-12 M
[9] = biological target: IgG binding protein (Protein A homolog SpsQ/SpsP) on MRSP S. pseudintermedius 88493 (Staphylococcus pseudintermedius); assay: ELISA, coated S. pseudintermedius 88493, antibody 3.09E-07 M
[10] = biological target: IgG binding protein (Protein A homolog SpsQ/SpsP) on MRSP S. pseudintermedius 88493 (Staphylococcus pseudintermedius); assay: ELISA, coated S. pseudintermedius 88493, antibody 1.18E-12 M
[11] = biological target: IgG binding protein (Protein A homolog SpsQ/SpsP) on S. pseudintermedius AHDRCC 98200 (Staphylococcus pseudintermedius); assay: ELISA, coated S. pseudintermedius 98200, antibody 1.47E-13 M
[12] = biological target: IgG binding protein (Protein A homolog SpsQ/SpsP) on S. intermedius 27369 (Staphylococcus intermedius); assay: ELISA, coated S. intermedius 27369, antibody 7.54E-11 M
[13] = biological target: IgG binding protein (Protein A homolog SpsQ/SpsP) on S. pseudintermedius AHDRCC 98200 (Staphylococcus pseudintermedius); assay: ELISA, coated S. pseudintermedius 98200, antibody 4.82E-09 M
[14] = biological target: Protein A on the surface of S. aureus Newman wild-type (Staphylococcus aureus (strain Newman)) (UniProt P38507); assay: ELISA, coated S. aureus Newman, antibody 6.03E-10 M
[15] = biological target: IgG binding protein (Protein A homolog SpsQ/SpsP) on MRSP S. pseudintermedius 88493 (Staphylococcus pseudintermedius); assay: ELISA, coated S. pseudintermedius 88493, antibody 9.42E-12 M
[16] = biological target: IgG binding protein (Protein A homolog SpsQ/SpsP) on S. intermedius 27369 (Staphylococcus intermedius); assay: ELISA, coated S. intermedius 27369, antibody 4.82E-09 M
[17] = biological target: IgG binding protein (Protein A homolog SpsQ/SpsP) on MRSP S. pseudintermedius 88493 (Staphylococcus pseudintermedius); assay: ELISA, coated S. pseudintermedius 88493, antibody 6.03E-10 M
[18] = biological target: IgG binding protein (Protein A homolog SpsQ/SpsP) on MRSP S. pseudintermedius 88493 (Staphylococcus pseudintermedius); assay: ELISA, coated S. pseudintermedius 88493, antibody 4.82E-09 M
[19] = biological target: Protein A on the surface of S. aureus Newman wild-type (Staphylococcus aureus (strain Newman)) (UniProt P38507); assay: ELISA, coated S. aureus Newman, antibody 1.18E-12 M
[20] = biological target: IgG binding protein (Protein A homolog SpsQ/SpsP) on S. pseudintermedius AHDRCC 98200 (Staphylococcus pseudintermedius); assay: ELISA, coated S. pseudintermedius 98200, antibody 7.54E-11 M
[21] = biological target: IgG binding protein (Protein A homolog SpsQ/SpsP) on S. pseudintermedius AHDRCC 98200 (Staphylococcus pseudintermedius); assay: ELISA, coated S. pseudintermedius 98200, antibody 6.03E-10 M
[22] = biological target: IgG binding protein (Protein A homolog SpsQ/SpsP) on S. intermedius 27369 (Staphylococcus intermedius); assay: ELISA, coated S. intermedius 27369, antibody 3.09E-07 M
[23] = biological target: IgG binding protein (Protein A homolog SpsQ/SpsP) on MRSP S. pseudintermedius 88493 (Staphylococcus pseudintermedius); assay: ELISA, coated S. pseudintermedius 88493, antibody 3.86E-08 M
[24] = biological target: IgG binding protein (Protein A homolog SpsQ/SpsP) on S. intermedius 27369 (Staphylococcus intermedius); assay: ELISA, coated S. intermedius 27369, antibody 6.03E-10 M
[25] = biological target: IgG binding protein (Protein A homolog SpsQ/SpsP) on S. intermedius 27369 (Staphylococcus intermedius); assay: ELISA, coated S. intermedius 27369, antibody 1.18E-12 M
[26] = biological target: Protein A on the surface of S. aureus Newman wild-type (Staphylococcus aureus (strain Newman)) (UniProt P38507); assay: ELISA, coated S. aureus Newman, antibody 7.54E-11 M
[27] = biological target: Protein A on the surface of S. aureus Newman wild-type (Staphylococcus aureus (strain Newman)) (UniProt P38507); assay: ELISA, coated S. aureus Newman, antibody 3.09E-07 M
[28] = biological target: IgG binding protein (Protein A homolog SpsQ/SpsP) on S. intermedius 27369 (Staphylococcus intermedius); assay: ELISA, coated S. intermedius 27369, antibody 9.42E-12 M
[29] = biological target: Protein A on the surface of S. aureus Newman wild-type (Staphylococcus aureus (strain Newman)) (UniProt P38507); assay: ELISA, coated S. aureus Newman, antibody 3.86E-08 M
[30] = biological target: Protein A on the surface of S. aureus Newman wild-type (Staphylococcus aureus (strain Newman)) (UniProt P38507); assay: ELISA, coated S. aureus Newman, antibody 9.42E-12 M
[31] = biological target: IgG binding protein (Protein A homolog SpsQ/SpsP) on S. pseudintermedius AHDRCC 98200 (Staphylococcus pseudintermedius); assay: ELISA, coated S. pseudintermedius 98200, antibody 9.42E-12 M
[32] = biological target: IgG binding protein (Protein A homolog SpsQ/SpsP) on MRSP S. pseudintermedius 88493 (Staphylococcus pseudintermedius); assay: ELISA, coated S. pseudintermedius 88493, antibody 7.54E-11 M
[33] = biological target: Protein A on the surface of S. aureus Newman wild-type (Staphylococcus aureus (strain Newman)) (UniProt P38507); assay: ELISA, coated S. aureus Newman, antibody 1.47E-13 M
[34] = biological target: IgG binding protein (Protein A homolog SpsQ/SpsP) on MRSP S. pseudintermedius 88493 (Staphylococcus pseudintermedius); assay: ELISA, coated S. pseudintermedius 88493, antibody 1.47E-13 M
[35] = biological target: Protein A on the surface of S. aureus Newman wild-type (Staphylococcus aureus (strain Newman)) (UniProt P38507); assay: ELISA, coated S. aureus Newman, antibody 4.82E-09 M

| Substance | ELISA luminescent signal [1] | ELISA luminescent signal [2] | ELISA luminescent signal [3] | ELISA luminescent signal [7] | ELISA luminescent signal [8] | ELISA luminescent signal [9] | ELISA luminescent signal [10] | ELISA luminescent signal [11] | ELISA luminescent signal [12] | ELISA luminescent signal [13] | ELISA luminescent signal [14] | ELISA luminescent signal [15] | ELISA luminescent signal [16] | ELISA luminescent signal [17] | ELISA luminescent signal [18] | ELISA luminescent signal [19] | ELISA luminescent signal [20] | ELISA luminescent signal [21] | ELISA luminescent signal [22] | ELISA luminescent signal [23] | further results |
| --- | --- | --- | --- | --- | --- | --- | --- | --- | --- | --- | --- | --- | --- | --- | --- | --- | --- | --- | --- | --- | --- |
| hIgG1*/* control (REGN4440) (antibody) | 3850 | 5100 | 15200 | 896 | 2170 | 14700 | 6710 | 1120 | 2510 | 2410 | 27500 | 6150 | 2490 | 7080 | 7360 | 17100 | 2240 | 2760 | 11100 | 6470 | median cfu/mL after 16 h in 50% normal human serum, mAb 270 ug/mL [4]: 7e+06 cfu/mL; median cfu/mL after 16 h in 50% normal human serum, mAb 270 ug/mL [5]: 8e+06 cfu/mL; median cfu/mL after 16 h in 50% normal human serum, mAb 270 ug/mL [6]: 7.5e+06 cfu/mL; ELISA luminescent signal [24]: 3010; ELISA luminescent signal [25]: 2210; ELISA luminescent signal [26]: 24400; ELISA luminescent signal [27]: 38800; ELISA luminescent signal [28]: 775; ELISA luminescent signal [29]: 27600; ELISA luminescent signal [30]: 16700; ELISA luminescent signal [31]: 1170; ELISA luminescent signal [32]: 6370; ELISA luminescent signal [33]: 15500; ELISA luminescent signal [34]: 12300; ELISA luminescent signal [35]: 19400 |
| hIgG1 control (REGN1932) (antibody) | 34800 | 36400 | 132000 | 25300 | 2830 | 43900 | 8920 | 1480 | 2680 | 8040 | 509000 | 7980 | 42100 | 11000 | 8950 | 30200 | 2590 | 4770 | 123000 | 14500 | ELISA luminescent signal [24]: 5300; ELISA luminescent signal [25]: 9740; ELISA luminescent signal [26]: 253000; ELISA luminescent signal [27]: 506000; ELISA luminescent signal [28]: 1610; ELISA luminescent signal [29]: 434000; ELISA luminescent signal [30]: 72500; ELISA luminescent signal [31]: 1460; ELISA luminescent signal [32]: 7560; ELISA luminescent signal [33]: 18600; ELISA luminescent signal [34]: 8190; ELISA luminescent signal [35]: 652000 |
